Source: the nanobody polyreactivity screen of Harvey et al. (2022)

Test: yeast display, Sf9 membrane polyspecificity reagent, FACS + sequencing; frameworks hold sequencing errors
Method in brief: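 Synthetic nanobody libraries on Saccharomyces cerevisiae BJ5465 were galactose-induced for 36–48 hours, stained 1 hour at 4 °C with 10% biotinylated, detergent-solubilized Sf9 membrane reagent and enriched on streptavidin microbeads. FACS then separated cells into low and high (top ~1%) gates by anti-HA (expression) and streptavidin (reagent binding) fluorescence. Genes were colony-PCR amplified, MiSeq 2 × 250 sequenced and CDR-length filtered. A clone's polyreactivity label is that of its gate of origin.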

Row | Sequence | polyreactivity (PSR sort gate)
1 | QVQLVESGGGLVQAGGSLRLSCAASGSIFNSYAMGWYRQAPGKERELVAAISSGGGRTYYADSVKGRFTISRDNAKNTVYLQMNSLKPEDTAVYYCNARAVYRFDYWGQGTQVTVSS | high polyreactivity
2 | QVQLVESGGGLDQAGGSLRLSCAASGFTFPGNAMGWYRQSPGKEREFVAGISRSGDSTYYADSVKGRFTISRDNAKNTVYLQMNSLKPEDTAVYYCAARNPYRYFYYYEYWGQGTQVTVSS | low polyreactivity
3 | QVQLVESGGGLVQAGGSHRLSCAASGSTLSSYAMGWYRQAPGKERELVAAISSSSGSTYYADSVKGRFTISRDNAKNTVYLQMNSLKPEDTAVYYCAADFRYWGQGTQVTVSS | low polyreactivity
4 | QVQLVESGAGLFQAGGRLRLSCAPSGSTFGTYAMGWYRQAPGKERELVAAITSGGSTDYADSVKGRFTISRDNAKNTVYLQMNSLKPEDTAVYYCNATWELLSYYYLFWGYDYWGQGTQVTVSS | low polyreactivity
5 | QVQLVESGGGLVQAGGSLRLSCAASGSTFQFYAMGWYRQAPGKERELVAAIRSSDDSTYYADSVKGRFTISRDNAKNTVYLQMNSLKPEDTAVYYCAAVQDYYGVWYDYWGQGTQVTVSS | high polyreactivity
6 | QVELVDSGGGLVQAGGILRLSCPASGSTIPTNVMGWSRQAPGKERECVAAITWSVGSTYYADSVKGRFTISRDNAKNTVYLQMNSLKPEDTAVYYCTADSQVLSAPDDYWGQGTQVTVSS | low polyreactivity
7 | QVQHVESGGGLVQAGGSLRLSCAASGRTFDYYAMGWYRQAPGKERELVASIRSSGRTTYADSVKGRFTISRDNAKNTDYLQMNSRKPEDTAVYYCAAQWPGWWGYDYWGQGTQVTVSS | low polyreactivity
8 | QVQLVESGGGLVQAGGSLRLSCAASGSSFDIYVMGWYRQAPGKERELLAAISRVGNTSYADSVKGRFTISRDNGKNTVYLQMNKHETGIYRGHYCGAGLVGAGYITYNDYDYWGQGTQVSVSS | low polyreactivity
9 | HVQLVESGGGLVQAGGSLRLSFAASGRIFTHNAMGLYRKAPGKERELVAAITSGGRTTYADSVKGRFTISRDNAKNTVYLQMNSLKPEDTAVYYCNADTGLGSLDFDKRDYWGQGTQVTVSS | low polyreactivity
10 | QVQLVESGGGLVQAGGSLRLSCAASGRTFWANTMGWYRQAPGKERELVAAISKRGGSTYYADSVKGRFTISRDNAKNTVYLQMISLKPEDTAVFYCNADKSGWYDYWGQGTQVTVSS | high polyreactivity
11 | QVQLVESGGGLVQAGGSLSLSCAASGRNFTIYAMGWYIQAPGKEREMVAGITRSGGRTYYADSVKGRFTISRDNAKNTVYLQMNSLKPEDTAVYYCNRVFYSGYRGQGHSYESWGQGTQVTVSS | high polyreactivity
12 | QVQLVESGGGLVHAGGSLRLSCAASGSIITYYAMGWSRQAPGKERELVAVISASGGRTYYADSVKVRFTISLDNAMYSVYLQMNSLKPEDTAVYYCAAYRSIYSFKFGYWGQGSQVTVSS | high polyreactivity
13 | QVQLVESGGGLVQAGGSLRLTCAASGSTFSGYAMGWYRQAPGKERELVATISGGGSTYYADSVKGRFTISRDNAKNTVYLQMNILKPEDTAVYYCNAQGYGIFTSSLDYWGQGTQVTVSS | low polyreactivity
14 | QVQLVESGGGLVQAGGSLRLSCAASGSIFNRYTMGWYRQAPGKEREFVAAIRNSGSRTYYADSVKRRFTISRDNAKNTVYLQMNSLKPEDTAVYYCAADGPLISSESYYWGQGTQVTVSS | low polyreactivity
15 | QVQLVESGGGLVQAGGSLRLSCAASGRIFVRNAMGWYRQAPGKERELVAAITRTGASTYYADSVKGRFTISRDNAKNTVYLQMNSLKPEDTAVYYCNKEIVWHLWYESWGQGTQVTVSS | high polyreactivity
16 | QVQLVESGGGLVQAGGSLRLSCAASGFSVYPYAMGWYRQAPGKERELVAAISSSGGSTYYADSVKGRFTISRDNAKNTVYLQMNSLKPEDTAVYYCNKRPQQYRPGYDYWGQGTQVTVSS | high polyreactivity
17 | QEQLVESVGGLVQARGSLRLSGAASGYTFKYNALGWYRPAPGKERELVAAITSGGSTNYADSVKGRFTISRDNAKNTVYLQMNSLKPEDTAVYYCAAAQPRTNAYRVGSWGQGTQVTVSS | high polyreactivity
18 | QVQLVESGGGLVQAGGSLRLSCAASGRTFYYAMGWYRQAPGKERELVASITWSGGITTYADSVKGRFTISRDNAKNTVYLQLNSLKPEDTAVYYCAAQVIKGRTYQLGDYWGQGTQVTVSS | high polyreactivity
19 | QVQLVESGGALVQAGGSLRLTCAASGRTLYLYAMGWYRQAPGKEREFVAAINSSGDSTYYADSVKGRFTISRDNAKNTVYLQMNSLNPEDTAVYYCNVAWFRHEYDYWGQGTQVTVSS | low polyreactivity
20 | QVHLVESGGGLVQAGGSLRLSGAASGRIFFSNAMGWYRQAPGKEWELVAAISTSGGSTYYADSVKGRFTISRENAKNTVYLQMNSLKPEDTAVYYCNAVYYTSYSGYHFVYEYDYWGQGTQVTVSS | low polyreactivity
21 | QVQLVESGGGLVQAGASLRISCAASGNILPVYAMGWYRQAPGKEREFVAAITSRGGSTYYADSVKGRFTISRDNAKNTVYLQMNSLKPEDTAVYYCAAKYLRAYGYWGQGTQVTVSS | high polyreactivity
22 | QVQLVESGGGLVQAGGSLRLICAASGLTFYYYAMGWYRQAPGKERELVAASSTRGTSTYYADSVKGRFTISRDNSKNTVYLQMNSLKPEDTAVYYCAADSYPCGTGGDYWGQGTQVTVSS | high polyreactivity

Row | Sequence | polyreactivity (PSR sort gate)
23 | QVQLVESGGGLVQAGGSLRLSCAASGSIFSSYAMGWYRQAPGKERELVAAISQSGGDTYYADSVKGRFTISRDNAKNTVYLQMNSLKPEDTAVYYCAASFWYYPMDYWGQGTQVTVSS | low polyreactivity
24 | QVQLVESGGGLVQAGGSLRLSCAASGSTFVNNAMGWYRQAPGTERELVAAIRSSDGRTYYADSVKGRFTISRDNAKNTVYLQMNSLKPEDTAVYYCATAVGTKYRTRIFEYYYWGQGTQVTVSS | high polyreactivity
25 | QVQLVESGGGLVQAGGSLRLRCAASGFTFTRYAMGWYRQAPGKERELVAVITSTAGSTYYADSVKGRFTISRDNAKNTVYLQMNSLKPEDTAVYYCAAESLVHGDVTLEEVVAQSYDYWGQGTQVTVSS | low polyreactivity
26 | QVQLVESGGGLVQAGGSLRLICAASGNIFDVNAMGLYRQAPGKERELVAGITTNGGRTFYADSVKGRFTFSRDNAKNTVYLQMNSLKPEDTAVYYWNARHGRHRRTPFAKYDFWGQGTQVTVSS | high polyreactivity
27 | QVQHVESGGGLVQAGGNLRLSCPASGFTIYYYAMVCDRQAPGKERELVAGISKSGGITYYADSVKGRFTISRDNAKNTVYLQMNSLKPEDTAVYYCAAAEWYQFFIYRYTYEYWGQGSQVTVSS | low polyreactivity
28 | QVQLVESGGGLVQAGGSLRLSCAASGFIFYNYAMGWYRQAPGKVRELVAAISASGGRTYYADSVKGRFTISRDNAKNTVYLQMNRLKPEDTAVYYCNARVNYKGYDYWGQGTQVTVSS | high polyreactivity
29 | HVQLVESGGGLVQAGGSLRLSCAASGFIFRKYAMGWYRQAPGKERELVAAISGRADSTYYADSVKGRFTISRDNAKNTVYLEMISLKPEDTAVYYCAADWLSKIGKGYDYWGQGTQVTVSS | high polyreactivity
30 | QVQLVESGGGLVQAGGSLRLSCAASGRTFYGYTMGWYRQAPGKERELVAAISRNGASTFYADSVKGRFTISRDNAKNTVYLQMNSLKPEDTAVYYCNARSWRHTDTSFEYWGQGTQVTVSS | high polyreactivity
31 | QVQLLESGGGLVQAGGSLRLSCAASGLTYAYNTMGWYRQAPGKERELVADISWSGGRTYYADSVKGRFTISRDNAKNTVYLQMNSLKPEDTAVYYCAAEFWHQYGAYDYWGQGTQVTVSS | low polyreactivity
32 | QVQLVESGGGLVQAGGSLRLSCAASGSIFSTNAMGWYRQAPRKERELVAAITYSGSRTYYADSVKGRFTISRDNAKNTVYLQMNSLKPEDTAVYYCAADTSWYSWWFDYWGQGTQVTVSS | low polyreactivity
33 | QVQLVESGGVLVQSGGSLRLSCAASGRTFWWYAMGWYRQAPGKERALVAGISSGGSTYYADSVKGRFTISRDNAKYTVYLQMNSLKPEDTAVYYCAKTYWYPWRASLWHEYDYWGQGTQVTVSS | low polyreactivity
34 | QVQLEESGGGLDQAGGSLRLICAASGSIFPSYAMGWYRQAPGKERELVATIGRGGTTNYSDSVKGRFTISRDNAKITVYLLMNSLKPEDTAVYYCNADRIWRYKYGYDYWRQGTQVTVSS | high polyreactivity
35 | QVQLVESGGGLVQAGGSLRLSCAASGIIFTYYAMGWYRQAPGKERELVAAISDSGGGTYYADSVKGRFTISRDNAKNTVYLQMNSLKPEDTAVYYCAASGAWWDDYWGQGTQVTVSS | high polyreactivity
36 | QDQLVESGGGLVQAGGSLRLSCAASGFIIQCNAMGWYRQAPGKERELVAAISSSVSTYYADSVKGRFTISRDNAKNTVYLQMNSLKPEDTAVYYCNAGFPLSLWLGDYWGQGTQVTVSS | low polyreactivity
37 | QVQLVESGGGLVQAGGSLRLSCAASGRTFGYYAMGWYRQAPGKVRELVASISSSGGNTYYADSVKGRFTISRDNAKNNVYLQMNSLKPEDTAVYYCAATYGWWPRDYYYWGQGTQVTVSS | high polyreactivity
38 | QVQLVESGGGLVQAGGSLRLSCAASGSTFRYNAMGWYRQAPGKERELVAVISWGGGRTYYADSVKGRFTISRDNAKNTVYLQMNSLKPEDTAVYYCNVYFGRIVARDYGYWGQGTQVTVSS | high polyreactivity
39 | QVQLVESGGGLVQAGGSLRLICAASGSIFYGNTMGWYRQARGKERELVAAISSGGSTYYADSVKGRFTISRDNAKNSVYLQMNSLKPEDTAVYYCAREDYSHSFLTYDYWGQGSQVTVSS | low polyreactivity
40 | QVQLVESGGGLVQAGGSLRLSCAASGSILNSYAMGWYRQAPGKERELVATITSGSRTNYADSVKGRFTISRDNAKNTVYLQMNSLKPEDTAVYYCATEYQRRHYIGHNYWGQGTQVTVSS | low polyreactivity
41 | QVQLVESGAGLVQAGGSRRLSCAASGSIFYRYTMGWYRQAPGKERELVAGITFGAGTYYADSVKGRFTISRDNAKNTVYLQMNSLKPEDTAVYYCNAIHLPRNRDYWGQGTQVTVSS | low polyreactivity
42 | QVQIVESGGCLVQAGGSLRLSCAASGGTIGGNAMGWYRQAPGKQREMVAAITDIGGSTYYSDSVKGRFTISRDNAKNTVSLQKNCLKPEDTSVYFCATDEASNQDATYLYYYWGQGTQVTVSS | low polyreactivity
43 | QVQLVESGGGLVQAGGSLSLSCAASGFIFPRYTMGWYRQAPGKERELVAAMTSSGGTNYADSVKGRFTISRDNAKNTVYLQMNSLKPEDTAVYYCAARRRTQQGYGGGYWGQGTQVTVSS | high polyreactivity
